Usually Kd stands for the concentration at which binding is half-saturated.

The target of the assay is FMC63 scFv, His Tag. The experiment in a line: SPR; FMC63 scFv as analyte at 125, 62.5, 31.25, 15.625, 7.813, 3.906 and 1.953 nM. For orientation: In SPR one partner is held on a chip, and binding of the other changes the refractive index at the surface.

B1: Y45克隆号抗体 (antibody, V domains shown)
VH: EVKLLESGGGLVQPGGSLKLSCAASGDFRYFQWMSWVRQAPGKGLEWIGEIDNLDSITKYTPSLKDKFIISRDNAKNTLYLQMRKVRSEDTALYYCRAYRYMYDPRWGQGTSVTVSS
VL: DIVLTQSPASLAVSLGQRATISCRASKVSSTSSGYYMHWYQQKPGQPPKLLIYALNNLESGVPARFSGSGSGTDFTLNVHPVEEEDAATYYCQTFYGSELPFGSGTKLEIK
As for B1, the Kd worked out at 1.08 nM.

Source of the values: patent CN112375146A.
